Biological target: H-2Kb-restricted ova peptide SIINFEKL presented on H-2Kb (chicken)
Assay: cell-based or functional assay

transgenic OT-I T-cell receptor (TCR) showed an IFN-gamma ELISPOT, spots per well (spots per well) greater than 1000.

Source: patent publication US20100292309A1
